In the Immune Epitope Database (IEDB):

What was measured:
HLA-A*24:02 = test: IEDB peptide-MHC binding, purified MHC/competitive/radioactivity; filed as Kd, often an IC50 or EC50 that approximates it; ≥ and ≤ were set here for values at or beyond the usual limits of such assays
HLA-A*23:01 = test: as above
HLA-A*32:01 = test: as above
HLA-A*26:01 = test: as above
HLA-B*44:02 = test: as above
HLA-A*30:02 = test: as above
HLA-A*11:01 [1] = test: IEDB peptide-MHC binding, purified MHC/direct/fluorescence; filed as Kd, often an IC50 or EC50 that approximates it; ≥ and ≤ were set here for values at or beyond the usual limits of such assays
HLA-A*69:01 = test: as above
HLA-A*02:01 = test: as above
HLA-B*58:01 = test: as above
HLA-A*03:01 = test: as above; settings: source organism: Burkholderia mallei
HLA-B*40:01 = test: as above; settings: source organism: Mammarenavirus juninense
HLA-A*01:01 = test: IEDB peptide-MHC binding, purified MHC/competitive/radioactivity; filed as Kd, often an IC50 or EC50 that approximates it; ≥ and ≤ were set here for values at or beyond the usual limits of such assays
HLA-B*15:01 = test: IEDB peptide-MHC binding, purified MHC/direct/fluorescence; filed as Kd, often an IC50 or EC50 that approximates it; ≥ and ≤ were set here for values at or beyond the usual limits of such assays; settings: source organism: Salmonella enterica subsp. enterica serovar Typhimurium
HLA-A*02:02 = test: IEDB peptide-MHC binding, purified MHC/competitive/radioactivity; filed as Kd, often an IC50 or EC50 that approximates it; ≥ and ≤ were set here for values at or beyond the usual limits of such assays
HLA-A*02:03 = test: as above
HLA-A*02:06 = test: as above
HLA-A*11:01 [2] = test: as above; settings: source organism: Dengue virus 1 Brazil/97-11/1997
[3] = source organism: Vaccinia virus WR
[4] = source organism: Dengue virus 1 Brazil/97-11/1997
[5] = source organism: Dengue virus 4 Philippines/H241/1956
[6] = source organism: Dengue virus 2 Jamaica/1409/1983
[7] = source organism: Dengue virus 3 Martinique/1243/1999
[8] = source organism: Salmonella enterica subsp. enterica serovar Typhimurium
[9] = source organism: Dengue virus 2 Peru/IQT2913/1996
[10] = source organism: Mammarenavirus brazilense
[11] = source organism: Pseudomonas aeruginosa
[12] = source organism: Burkholderia ambifaria AMMD
[13] = source organism: Giardia lamblia ATCC 50803
[14] = source organism: SARS coronavirus Tor2

Sequence: DMCDIYLLY
- Kd (HLA-A*24:02; [3]): 2.07 µM
- Kd (HLA-A*23:01; [3]): 0.216 µM

Sequence: EYQKTKNNDW
- Kd (HLA-A*24:02; [4]): 19.7 µM
- Kd (HLA-A*23:01; [4]): ≥ 33.6 µM

Sequence: AYMIGQTGI
- Kd (HLA-A*24:02; [5]): 0.093 µM

Sequence: KINNFANEF
- Kd (HLA-A*32:01; [3]): 0.00208 µM

Sequence: ITISEDGSM
- Kd (HLA-A*26:01; [6]): 2.99 µM

Sequence: KILLVAVSI
- Kd (HLA-A*32:01; source organism: Vaccinia virus Copenhagen): 0.00154 µM

Sequence: YQGKTVWFVP
- Kd (HLA-A*32:01; [5]): 8.5 µM

Sequence: NKAWMVHRQW
- Kd (HLA-B*44:02; [7]): 12.6 µM

Sequence: NRKGKVIGLY
- Kd (HLA-A*30:02; [5]): 0.109 µM

Sequence: IINKFFEVI
- Kd (HLA-A*32:01; [3]): 0.0111 µM

Sequence: EEKLSVVLF
- Kd (HLA-B*44:02; source organism: Homo sapiens): 0.143 µM

Sequence: EAILPEYGTL
- Kd (HLA-A*26:01; [7]): 13.9 µM

Sequence: ATFLWWIPL
- Kd (HLA-A*11:01 [1]; source organism: Bacillus anthracis): 0.0124 µM

Sequence: ELLSHVGQA
- Kd (HLA-A*69:01; [8]): 0.0631 µM
- Kd (HLA-A*02:01; [8]): 3.59 µM

Sequence: RLVDSIVSW
- Kd (HLA-B*58:01; source organism: Influenza A virus (A/Istanbul/CTF/10/2004(H3N2))): 0.0491 µM

Sequence: RTAGMIIML
- Kd (HLA-A*32:01; [9]): 0.0965 µM

Sequence: EHALLATSIF
- Kd (HLA-A*23:01; [4]): 4.61 µM
- Kd (HLA-A*26:01; [4]): ≥ 22.4 µM

Sequence: GVSGGSWVDI
- Kd (HLA-A*32:01; [6]): 4.31 µM

Sequence: RSIMGSNNI
- Kd (HLA-A*32:01; [3]): 0.141 µM

Sequence: AALLLLVAHY
- Kd (HLA-A*30:02; [6]): 10.5 µM

Sequence: TLYNHHRQY
- Kd (HLA-A*03:01): 0.046 µM

Sequence: TEEAFKIGL
- Kd (HLA-B*40:01): 0.0003 µM

Sequence: LTSKELMMA
- Kd (HLA-A*01:01; [6]): 5.73 µM

Sequence: YSDPLALKE
- Kd (HLA-A*01:01; [6]): 0.311 µM

Sequence: NALKINWYKK
- Kd (HLA-A*32:01; [7]): 2.14 µM

Sequence: GYKETPFLT
- Kd (HLA-A*30:02; [10]): ≥ 76.9 µM
- Kd (HLA-A*01:01; [10]): ≥ 65.2 µM
- Kd (HLA-A*26:01; [10]): ≥ 77.9 µM

Sequence: GVFKVWHPI
- Kd (HLA-A*11:01 [1]; [11]): 6.49 µM
- Kd (HLA-A*69:01; [11]): 1.34 µM
- Kd (HLA-A*02:01; [11]): 5.72 µM

Sequence: IIIFFIVLI
- Kd (HLA-A*32:01; [3]): 0.0137 µM

Sequence: YLNGGRRGY
- Kd (HLA-A*69:01; [12]): ≥ 20 µM
- Kd (HLA-A*02:01; [12]): ≥ 20 µM

Sequence: STDGPERVIL
- Kd (HLA-A*01:01; [5]): 18.7 µM

Sequence: SLNPYYQSY
- Kd (HLA-A*69:01; [13]): ≥ 20 µM
- Kd (HLA-A*02:01; [13]): ≥ 20 µM

Sequence: EYPKTKLTDW
- Kd (HLA-A*24:02; [5]): 0.954 µM
- Kd (HLA-A*23:01; [5]): 2.55 µM

Sequence: IQRDQVTDY
- Kd (HLA-B*15:01): 0.239 µM

Sequence: LKIVRNMEKY
- Kd (HLA-A*30:02; [6]): 0.0552 µM

Sequence: IISYIILFI
- Kd (HLA-A*02:02; [3]): 0.00278 µM
- Kd (HLA-A*02:03; [3]): 0.0587 µM
- Kd (HLA-A*02:06; [3]): 0.0271 µM
- Kd (HLA-A*32:01; [3]): ≥ 27.6 µM

Sequence: WYMWLGARF
- Kd (HLA-A*24:02; [6]): 0.0162 µM
- Kd (HLA-A*23:01; [6]): 0.0202 µM

Sequence: MEKYQLAVTI
- Kd (HLA-B*44:02; [6]): 0.331 µM

Sequence: LFKTNTGTI
- Kd (HLA-A*24:02; [6]): 1.28 µM

Sequence: CNLTSAWVMY
- Kd (HLA-A*30:02; [5]): 0.554 µM

Sequence: MTGTLAVFLL
- Kd (HLA-A*01:01; [4]): ≥ 34.6 µM

Sequence: WNSGYDWITD
- Kd (HLA-A*32:01; [4]): 4.83 µM

Sequence: SSVSSFERF
- Kd (HLA-B*58:01; source organism: Influenza A virus (A/camel/Mongolia/1982(H1N1))): 0.0725 µM

Sequence: FTNMEAQLV
- Kd (HLA-A*01:01; source organism: Dengue virus 3 Sri Lanka/1266/2000): 0.403 µM

Sequence: DINFITVNI
- Kd (HLA-A*32:01; [3]): 0.424 µM

Sequence: SLDRKEFEEY
- Kd (HLA-A*01:01; [5]): 1.05 µM

Sequence: LANERYRSA
- Kd (HLA-A*02:02; [3]): ≥ 31.3 µM
- Kd (HLA-A*02:03; [3]): 0.554 µM
- Kd (HLA-A*02:06; [3]): ≥ 77.1 µM

Sequence: QTLISLNSM
- Kd (HLA-A*02:02; [3]): 19.4 µM
- Kd (HLA-A*02:03; [3]): ≥ 39.3 µM
- Kd (HLA-A*02:06; [3]): 7.51 µM

Sequence: YVVVHGYFT
- Kd (HLA-A*02:02; [14]): 0.342 µM
- Kd (HLA-A*02:03; [14]): 0.792 µM
- Kd (HLA-A*02:06; [14]): 0.171 µM

Sequence: AVIIMAINV
- Kd (HLA-A*02:02; [3]): 9.07 µM
- Kd (HLA-A*02:03; [3]): 2.76 µM
- Kd (HLA-A*02:06; [3]): 0.0652 µM

Sequence: TLISSDGARV
- Kd (HLA-A*02:02; [3]): 0.142 µM
- Kd (HLA-A*02:03; [3]): 0.133 µM
- Kd (HLA-A*02:06; [3]): 1.22 µM

Sequence: DLDKVYEIL
- Kd (HLA-A*02:02; [3]): 19.6 µM
- Kd (HLA-A*02:03; [3]): ≥ 26.3 µM
- Kd (HLA-A*02:06; [3]): ≥ 53.7 µM

Sequence: ILDNLRCHSA
- Kd (HLA-A*02:02; [3]): 0.972 µM
- Kd (HLA-A*02:03; [3]): 0.0693 µM
- Kd (HLA-A*02:06; [3]): 0.297 µM

Sequence: KLALITVSG
- Kd (HLA-A*32:01; [5]): 0.0828 µM

Sequence: RSCTLPPLRF
- Kd (HLA-A*24:02; [4]): 10.7 µM
- Kd (HLA-A*23:01; [4]): 2.52 µM

Sequence: DFKGKTVWF
- Kd (HLA-A*23:01; [6]): 14.4 µM

Sequence: EYVKTRTNDW
- Kd (HLA-A*24:02; [9]): 2.17 µM
- Kd (HLA-A*23:01; [9]): 3.41 µM

Sequence: ETMYLTMKA
- Kd (HLA-A*02:02; [3]): 7.85 µM
- Kd (HLA-A*02:03; [3]): 0.942 µM
- Kd (HLA-A*02:06; [3]): 12.7 µM

Sequence: KALKLSWFKK
- Kd (HLA-A*11:01 [2]): 0.135 µM
- Kd (HLA-A*32:01; [4]): 9.28 µM

Sequence: TVITPMLRH
- Kd (HLA-A*26:01; [7]): 14.3 µM

Sequence: LMWFIISIV
- Kd (HLA-A*02:02; [14]): 0.0601 µM
- Kd (HLA-A*02:03; [14]): 0.00718 µM
- Kd (HLA-A*02:06; [14]): 0.0268 µM

Sequence: STIANSNII
- Kd (HLA-A*02:02; [3]): 6.12 µM
- Kd (HLA-A*02:03; [3]): 1.47 µM
- Kd (HLA-A*02:06; [3]): 1.24 µM
- Kd (HLA-A*32:01; [3]): 0.0143 µM
